According to PMC4918631 (Chembiochem : a European journal of chemical biology, 2016):
Substitutions are numbered along the chain they refer to. Names may count otherwise.

B1: SipB^82-312 D207C, MTSL spin-labeled (domain or fragment)
chain: EGQLTLLLGKLMTLLGDVSLSQLESRLAVWQAMIESQKEMGIQVSKEFQTALGEAQEATDLYEASIKKTDTAKSVYDAATKKLTQAQNKLQSLDPADPGYAQAEAAVEQAGKEATEAKEALDKATCATVKAGTDAKAKAEKADNILTKFQGTANAASQNQVSQGEQDNLSNVARLTMLMAMFIEIVGKNTEESLQNDLALFNALQEGRQAEMEKKSAEFQEETRKAEETNR
modifications: MTSL nitroxide spin label on the engineered cysteine at 207
B2: SipB^82-312 Asn-283 cysteine mutant, MTSL spin-labeled (domain or fragment)
chain: B1 chain with C126D, N202C
modifications: MTSL nitroxide spin label on the engineered cysteine at 283
B3: SipB^82-312 Lys-211 cysteine mutant, MTSL spin-labeled (domain or fragment)
chain: B1 chain with C126D, K130C
modifications: MTSL nitroxide spin label on the engineered cysteine at 211

Target: T1, SipD (residues 39-343, C244S) (Salmonella typhimurium strain SL1344, UniProt Q56026 39-343, C244S)
T1 sequence: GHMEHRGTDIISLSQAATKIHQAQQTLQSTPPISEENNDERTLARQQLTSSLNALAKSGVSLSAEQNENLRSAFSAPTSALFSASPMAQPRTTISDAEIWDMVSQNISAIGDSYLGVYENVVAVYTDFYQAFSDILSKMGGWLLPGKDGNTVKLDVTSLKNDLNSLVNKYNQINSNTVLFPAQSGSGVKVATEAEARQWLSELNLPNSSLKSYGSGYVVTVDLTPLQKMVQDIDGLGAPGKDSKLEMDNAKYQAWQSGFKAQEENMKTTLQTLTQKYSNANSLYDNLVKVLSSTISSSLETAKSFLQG
Assay: NMR paramagnetic relaxation enhancement

Binder	binding result
B1	binds
B2	binds
B3	binds
